“Also recorded” adds a separate entry of the source.
Assays:
C2C12 cells = assay: Scratch migration assay, C2C12 cells; assay type: cell-based; conditions: Mitomycin-C treated, 24 h, Wnt 100 ng/mL, vs Veh. or empty vector
Description: Cellular polarization is indicative of increased motility (de Forges et al., 2012). Scratch assays were used to test whether Wnt7a and Fzd7 polarization affect cell motility. To exclude effects on the localization of cells arising from altered rates of proliferation, cells were treated with Mitomycin-C.
Following plasmid transfection or application of Wnts (R&D Systems), the cells were treated with Mitomycin-C for 2 h (50 μg/mL). Subsequently, the monolayer of cells was scraped in a straight line. The plates were then extensively washed with culture medium and incubated for 24 h before analysis. Analysis was performed using DAPI staining after matching the reference points and enumeration of DAPI-stained nuclei in the scar was performed. Unless otherwise indicated, Wnt7a and Wnt3a were used at a concentration of 100 ng/mL in scratch assays. Monodansylcadaverine (MDC, 30432, Sigma) was used in scratch assays at a concentration of 50 μm.

Rac1 = Rac1 activation assay in mouse primary myoblasts; assay type: cell-based; conditions: Wnt7a overexpression (Wnt7a-HA retrovirus) vs empty virus
Text: (§1) Wnt7a signaling in satellite cells involves Rac1. Polarized peripheral Fzd7-tdTomato colocalized with GFP-Rac1 in C2C12 cells (FIG. 3A). It was hypothesized that the small GTPase Rac1 might also be involved in Wnt7a mediated cell polarization and migration. […] Various forms of Wnt signaling require Disheveled (Dvl) proteins.
(§2) For co-immunoprecipitation (CoIP) experiments and the Rac1 activation assay, satellite cell-derived primary myoblasts were infected with retroviruses generated from empty pHAN or from pHAN-Wnt7a-HA (Kuroda et al., 2013). Dvl2 knockdown was performed with an ON-TARGETplus siRNA SMARTpool (L-040921-01, Thermo Fisher Scientific) (Wu et al., 2008) using Lipofectamine RNAiMAX (Life Technologies) according to the manufacturer's instructions. As a control for the knockdown, a non-silencing siRNA SMARTpool was used (D-001810-10, Thermo Fisher Scientific). Cell extracts were obtained through RIPA buffer lysis in the presence of a protease inhibitor cocktail (Nacalai). For CoIP of Rac1 with Dvl2, rabbit anti-Dvl2 antibody was coupled to Protein A Dynabeads (Life Technologies). Denaturing SDS-PAGE was performed using standard techniques. Rac1 activation assay was performed according to the manufacturer's instructions (Pierce).

[1] = system: Rac1 association with Dvl2; assay: Co-IP of Rac1 with Dvl2 in primary myoblasts; assay type: cell-based, mouse; conditions: Wnt7a stimulated (infected) primary myoblasts vs EV
Text: as §1, §2

β-catenin signaling = assay: TOP-flash luciferase reporter assay in C2C12 cells; assay type: cell-based; conditions: different concentrations
Description: Different concentrations of Wnt7a were tested to exclude a dose dependent effect on β-catenin signaling, as measured by induction of TOP-flash activity in C2C12 cells.
The UBC-Fzd7-Flag (Fzd7-Flag), CMV-Fzd7-EYFP (Fzd7-YFP), CMV-Fzd3-EYFP (Fzd3-YFP), CMV-EYFP (YFP), CMV-EGFP-Rac1-wt (GFP-Rac1, 12980, Addgene), CMV-EGFP-Rac1-T17N (Rac1-DN, 12982, Addgene), CMV-EGFP-RhoA-T19N (RhoA-DN, 12967, Addgene) and CMV-EGFP-Cdc42-T17N (Cdc42-DN, 12976, Addgene) constructs have been described previously (Bentzinger et al., 2013a; Subauste et al., 2000; von Maltzahn et al., 2011). The Fzd7-tdtomato plasmid was generated by replacing the C-terminal YFP in Fzd7-YFP with tdTomato. For TOP-flash and FOP-flash the TCF reporter plasmid kit (17-285, Millipore) was used with the dual-luciferase reporter assay system (E1960, Promega). For normalization pGL4.74[hRluc/TK] (E6921, Promega) was cotransfected. For TOP-flash and FOP-flash assays the cells were transfected with GenJet lipofection reagent (SL100499, SignaGen). Otherwise, Lipofectamine 2000 (11668019, Life Technologies) was used for transfections.

Fzd7 = assay: Subcellular distribution of Fzd7-YFP in primary myoblasts; assay type: cell-based; conditions: Wnt7a stimulated vs controls
Description: The effect of Wnt7a treatment on the subcellular distribution of Fzd7 was tested. […] Furthermore, it was observed that myoblasts exposed to conditioned medium containing HA epitope tagged Wnt7a (Wnt7a-HA) quickly endocytosed this factor. After 3 h of incubation and several subsequent washing steps, endocytosed Wnt7a-HA was detectable for ≧72 h in intracellular structures in primary myoblasts (FIG. 4E) and C2C12 cells (FIG. 11E).

[2] = system: mdx extensor digitorum longus (EDL) muscles; assay: Muscle force measurement of mdx EDL muscles after satellite cell transplantation; assay type: in vivo, mouse; conditions: 3,000 satellite cells treated ex vivo, compared to Veh.
Text: Under normal conditions, a portion of transplanted satellite cells will differentiate and fuse to muscle myofibers. In mdx mice, this process can be tracked by staining for restored dystrophin expression in muscle fibers. […] Similar to the stimulatory effect of Wnt7a on myogenic cell migration in vitro, clusters of dystrophin-expressing myofibers in muscles that were transplanted with Wnt7a-treated cells were highly dispersed and on average located maximally 3.7 mm apart. By contrast, transplantation of untreated cells gave rise to clusters of dystrophin-expressing myofibers that were on maximally 2.2 mm apart on average (FIGS. 6F and 6G).
Extensor digitorum longus (EDL) muscles were isolated three weeks following transplantation and attached to an electrode and a force sensor (Aurora Scientific), and incubated at 25° C. in buffered physiological saline (Krebs-Ringer) supplemented with glucose and oxygen. Twitch force was determined following a single electrical stimulus, while maximal force was generated by electrical stimulation at 100 Hz for 500 ms. Thereafter, muscle length and weight were measured and specific muscle force was calculated ((maximal force×optimal fiber length×muscle density)/muscle mass).

B1: Wnt7a: non-canonical Wnt polypeptide (R&D Systems) used to treat or load myogenic cells (protein, UniProt O00755 32-349, looked up)
Protein Wnt-7a: LGASIICNKIPGLAPRQRAICQSRPDAIIVIGEGSQMGLDECQFQFRNGRWNCSALGERTVFGKELKVGSREAAFTYAIIAAGVAHAITAACTQGNLSDCGCDKEKQGQYHRDEGWKWGGCSADIRYGIGFAKVFVDAREIKQNARTLMNLHNNEAGRKILEENMKLECKCHGVSGSCTTKTCWTTLPQFRELGYVLKDKYNEAVHVEPVRASRNKRPTFLKIKKPLSYRKPMDTDLVYIEKSPNYCEEDPVTGSVGTQGRACNKTAPQASGCDLMCCGRGYNTHQYARVWQCNCKFHWCCYVKCNTCSERTEMYTCK
- increase in cell migration (C2C12 cells): 443%
- activation of Rac1 (Rac1): significantly increased the activation of Rac1
- Rac1 association with Dvl2 [1]: increased Rac1 association with Dvl2
- TOP-flash reporter activity (β-catenin signaling): does not activate the TOP-flash reporter at any tested concentration; also recorded: did not increase TOP-flash reporter activity
- subcellular distribution of Fzd7-YFP (Fzd7): decreases the abundance of peripheral Fzd7-YFP; also recorded: higher abundance of large intracellular aggregates and reduced peripheral Fzd7-YFP
- increase in maximal specific force generation [2]: 18%
- increase in twitch tension [2]: 30%

From US20170087188A1, “WNT INDUCED MOTILITY AND ENHANCED ENGRAFTMENT OF CELLS” (OTTAWA HOSPITAL RESEARCH INSTITUTE, priority 2014, published 2017)
